Assay results: US20190040102A1 (CDRD VENTURES, published 2019)
Starred links: 1 amine or outer side, 2 acyl side, 3 side chain; linkers in the order of their positions; H or OH if unused. Positions of bridges follow the written chain, without caps; N, C: chain ends. Non-standard residues stand in square brackets, D forms with d. *: point of attachment. dPhe(4-phenylureido) = D-4-(phenylureido)Phe, O=C(Nc1ccccc1)Nc1ccc(C[C@@H](N[*:1])C(=O)[*:2])cc1; thiocarbamate = -NH-(C=O)-S- bridge between side chains (disulfide isostere); dPhe(4-CONH2) = NC(=O)c1ccc(C[C@@H](N)C(=O)O)cc1; NMePhe(4-Cl) = CN[C@@H](Cc1ccc(Cl)cc1)C(=O)O; Phe(4-Cl) = N[C@@H](Cc1ccc(Cl)cc1)C(=O)O; NMeY = CN[C@@H](Cc1ccc(O)cc1)C(=O)O; dNMeY = CN[C@H](Cc1ccc(O)cc1)C(=O)O; NMeT = CN[C@H](C(=O)O)[C@@H](C)O; NMeC = CN[C@@H](CS)C(=O)O; dNMeC = CN[C@H](CS)C(=O)O; dDap = NC[C@@H](N)C(=O)O; Dap = NC[C@H](N)C(=O)O; Hexanoyl = CCCCCC(=O)*

B1: Compound 59: H-Cpa-[DCys-Tyr-DPhe(4-CN)-Lys-Thr-Cys]-DTyr-NH2 (peptide)
peptide: XXYXKTCX
HELM: PEPTIDE1{[N[C@@H](Cc1ccc(Cl)cc1)C(=O)[*:2]].[dC].Y.[N#Cc1ccc(C[C@@H](N[*:1])C(=O)[*:2])cc1].K.T.C.[dY].[am]}$PEPTIDE1,PEPTIDE1,2:R3-7:R3$$$V2.0
SMILES: C[C@@H](O)[C@@H]1NC(=O)[C@H](CCCCN)NC(=O)[C@@H](Cc2ccc(C#N)cc2)NC(=O)[C@H](Cc2ccc(O)cc2)NC(=O)[C@H](NC(=O)[C@@H](N)Cc2ccc(Cl)cc2)CSSC[C@@H](C(=O)N[C@H](Cc2ccc(O)cc2)C(N)=O)NC1=O
B2: Compound 70: H-Cpa-cyclo[DDap-Tyr-Xaa4-Lys-Thr-Asp]-DTyr-NH2 (peptide)
peptide: H-[Phe(4-Cl)][dDap]Y[dPhe(4-phenylureido)]KTD[dY]-NH2
modifications: lactam 2-7; not fully specified; printed as H-Cpa-cyclo[DDap-Tyr-Xaa4-Lys-Thr-Asp]-DTyr-NH2
B3: Compound 71: H-Cpa-cyclo[DDap-Tyr-DPhe(4-CONH2)-Lys(Me)-Thr-Asp]-DTyr-NH2 (peptide)
peptide: H-[Phe(4-Cl)][dDap]Y[dPhe(4-CONH2)]K(Me)TD[dY]-NH2
modifications: lactam 2-7; not fully specified; printed as H-Cpa-cyclo[DDap-Tyr-DPhe(4-CONH2)-Lys(Me)-Thr-Asp]-DTyr-NH2
B4: Compound 69: H-Cpa-cyclo[DDap-Tyr-DPhe(4-CONH2)-Lys-Thr-Asp]-DTyr-NH2 (peptide)
peptide: H-[Phe(4-Cl)][dDap]Y[dPhe(4-CONH2)]KTD[dY]-NH2
modifications: lactam 2-7; not fully specified; printed as H-Cpa-cyclo[DDap-Tyr-DPhe(4-CONH2)-Lys-Thr-Asp]-DTyr-NH2
B5: Compound 72: H-Cpa-cyclo[DCys-Tyr-D-(4-carbamoyl)Phe-(N-alpha-Me)Lys-Thr-Cys]-DTyr-NH2 (peptide)
peptide: XXYXXTCX
HELM: PEPTIDE1{[N[C@@H](Cc1ccc(Cl)cc1)C(=O)[*:2]].[dC].Y.[NC(=O)c1ccc(C[C@@H](N[*:1])C(=O)[*:2])cc1].[meK].T.C.[dY].[am]}$PEPTIDE1,PEPTIDE1,2:R3-7:R3$$$V2.0
SMILES: C[C@@H](O)[C@@H]1NC(=O)[C@H](CCCCN)N(C)C(=O)[C@@H](Cc2ccc(C(N)=O)cc2)NC(=O)[C@H](Cc2ccc(O)cc2)NC(=O)[C@H](NC(=O)[C@@H](N)Cc2ccc(Cl)cc2)CSSC[C@@H](C(=O)N[C@H](Cc2ccc(O)cc2)C(N)=O)NC1=O
B6: Compound 56: CH3(CH2)4(CO)-Cpa-cyclo[D-Cys-Tyr-D-Phe(4-carbamoyl)-Lys(Nε-Me)-Thr-Cys]-D-Tyr-NH2 (peptide)
peptide: Hexanoyl-[Phe(4-Cl)][dC]Y[dPhe(4-CONH2)]K(Me)TC[dY]-NH2
modifications: disulfide 2-7
SMILES: CCCCCC(=O)N[C@@H](Cc1ccc(Cl)cc1)C(=O)N[C@@H]1CSSC[C@@H](C(=O)N[C@H](Cc2ccc(O)cc2)C(N)=O)NC(=O)[C@H]([C@@H](C)O)NC(=O)[C@H](CCCCNC)NC(=O)[C@@H](Cc2ccc(C(N)=O)cc2)NC(=O)[C@H](Cc2ccc(O)cc2)NC1=O
B7: Compound 76: H-Cpa-[DCys-Tyr-DPhe(4-carbamoyl)-Lys-Thr-NMeCys]-DTyr-NH2 (peptide)
peptide: H-[Phe(4-Cl)][dC]Y[dPhe(4-CONH2)]KT[NMeC][dY]-NH2
modifications: disulfide 2-7
SMILES: C[C@@H](O)[C@@H]1NC(=O)[C@H](CCCCN)NC(=O)[C@@H](Cc2ccc(C(N)=O)cc2)NC(=O)[C@H](Cc2ccc(O)cc2)NC(=O)[C@H](NC(=O)[C@@H](N)Cc2ccc(Cl)cc2)CSSC[C@@H](C(=O)N[C@H](Cc2ccc(O)cc2)C(N)=O)N(C)C1=O
B8: Compound 79: H-Cpa-[DCys-Tyr-DPhe(4-carbamoyl)-Lys-Thr-Cys]-NMeDTyr-NH2 (peptide)
peptide: H-[Phe(4-Cl)][dC]Y[dPhe(4-CONH2)]KTC[dNMeY]-NH2
modifications: disulfide 2-7
SMILES: C[C@@H](O)[C@@H]1NC(=O)[C@H](CCCCN)NC(=O)[C@@H](Cc2ccc(C(N)=O)cc2)NC(=O)[C@H](Cc2ccc(O)cc2)NC(=O)[C@H](NC(=O)[C@@H](N)Cc2ccc(Cl)cc2)CSSC[C@@H](C(=O)N(C)[C@H](Cc2ccc(O)cc2)C(N)=O)NC1=O
B9: Compound 55: Ac-Gly-Cpa-cyclo[D-Cys-Tyr-D-Phe(4-carbamoyl)-Lys(Nε-Me)-Thr-Cys]-D-Tyr-NH2 (peptide)
peptide: Ac-G[Phe(4-Cl)][dC]Y[dPhe(4-CONH2)]K(Me)TC[dY]-NH2
modifications: disulfide 3-8
SMILES: CNCCCC[C@@H]1NC(=O)[C@@H](Cc2ccc(C(N)=O)cc2)NC(=O)[C@H](Cc2ccc(O)cc2)NC(=O)[C@H](NC(=O)[C@H](Cc2ccc(Cl)cc2)NC(=O)CNC(C)=O)CSSC[C@@H](C(=O)N[C@H](Cc2ccc(O)cc2)C(N)=O)NC(=O)[C@H]([C@@H](C)O)NC1=O
B10: Compound 78: H-Cpa-[NMeDCys-Tyr-DPhe(4-carbamoyl)-Lys-Thr-Cys]-DTyr-NH2 (peptide)
peptide: H-[Phe(4-Cl)][dNMeC]Y[dPhe(4-CONH2)]KTC[dY]-NH2
modifications: disulfide 2-7
SMILES: C[C@@H](O)[C@@H]1NC(=O)[C@H](CCCCN)NC(=O)[C@@H](Cc2ccc(C(N)=O)cc2)NC(=O)[C@H](Cc2ccc(O)cc2)NC(=O)[C@H](N(C)C(=O)[C@@H](N)Cc2ccc(Cl)cc2)CSSC[C@@H](C(=O)N[C@H](Cc2ccc(O)cc2)C(N)=O)NC1=O
B11: Compound 77: H-(N-Me)Cpa-cyclo[D-Cys-Tyr-D-Phe(4-carbamoyl)-Lys-Thr-Cys]-D-Tyr-NH2 (peptide)
peptide: XXYXKTCX
HELM: PEPTIDE1{[CN[C@@H](Cc1ccc(Cl)cc1)C(=O)[*:2]].[dC].Y.[NC(=O)c1ccc(C[C@@H](N[*:1])C(=O)[*:2])cc1].K.T.C.[dY].[am]}$PEPTIDE1,PEPTIDE1,2:R3-7:R3$$$V2.0
SMILES: CN[C@@H](Cc1ccc(Cl)cc1)C(=O)N[C@@H]1CSSC[C@@H](C(=O)N[C@H](Cc2ccc(O)cc2)C(N)=O)NC(=O)[C@H]([C@@H](C)O)NC(=O)[C@H](CCCCN)NC(=O)[C@@H](Cc2ccc(C(N)=O)cc2)NC(=O)[C@H](Cc2ccc(O)cc2)NC1=O
B12: Compound 74: H-Cpa-[DCys-NMeTyr-DPhe(4-carbamoyl)-Lys-Thr-Cys]-DTyr-NH2 (peptide)
peptide: XXXXKTCX
HELM: PEPTIDE1{[N[C@@H](Cc1ccc(Cl)cc1)C(=O)[*:2]].[dC].[meY].[NC(=O)c1ccc(C[C@@H](N[*:1])C(=O)[*:2])cc1].K.T.C.[dY].[am]}$PEPTIDE1,PEPTIDE1,2:R3-7:R3$$$V2.0
SMILES: C[C@@H](O)[C@@H]1NC(=O)[C@H](CCCCN)NC(=O)[C@@H](Cc2ccc(C(N)=O)cc2)NC(=O)[C@H](Cc2ccc(O)cc2)N(C)C(=O)[C@H](NC(=O)[C@@H](N)Cc2ccc(Cl)cc2)CSSC[C@@H](C(=O)N[C@H](Cc2ccc(O)cc2)C(N)=O)NC1=O
B13: Compound 80: H-NMeCpa-[DCys-NMeTyr-DPhe(4-carbamoyl)-Lys-NMeThr-Cys]-NMeDTyr-NH2 (peptide)
peptide: H-[NMePhe(4-Cl)][dC][NMeY][dPhe(4-CONH2)]K[NMeT]C[dNMeY]-NH2
modifications: disulfide 2-7
SMILES: CN[C@@H](Cc1ccc(Cl)cc1)C(=O)N[C@@H]1CSSC[C@@H](C(=O)N(C)[C@H](Cc2ccc(O)cc2)C(N)=O)NC(=O)[C@H]([C@@H](C)O)N(C)C(=O)[C@H](CCCCN)NC(=O)[C@@H](Cc2ccc(C(N)=O)cc2)NC(=O)[C@H](Cc2ccc(O)cc2)N(C)C1=O
B14: Compound 25: H-Cpa-cyclo[D-Cys-Tyr-D-Phe(4-phenylureido)-Lys(Nε-Me)-Thr-Cys]-D-Tyr-NH2 (peptide)
peptide: H-[Phe(4-Cl)][dC]Y[dPhe(4-phenylureido)]K(Me)TC[dY]-NH2
modifications: disulfide 2-7
SMILES: CNCCCC[C@@H]1NC(=O)[C@@H](Cc2ccc(NC(=O)Nc3ccccc3)cc2)NC(=O)[C@H](Cc2ccc(O)cc2)NC(=O)[C@H](NC(=O)[C@@H](N)Cc2ccc(Cl)cc2)CSSC[C@@H](C(=O)N[C@H](Cc2ccc(O)cc2)C(N)=O)NC(=O)[C@H]([C@@H](C)O)NC1=O
B15: Compound 75: H-Cpa-[DCys-NMeTyr-DPhe(4-carbamoyl)-Lys-NMeThr-Cys]-DTyr-NH2 (peptide)
peptide: XXXXKXCX
HELM: PEPTIDE1{[N[C@@H](Cc1ccc(Cl)cc1)C(=O)[*:2]].[dC].[meY].[NC(=O)c1ccc(C[C@@H](N[*:1])C(=O)[*:2])cc1].K.[meT].C.[dY].[am]}$PEPTIDE1,PEPTIDE1,2:R3-7:R3$$$V2.0
SMILES: C[C@@H](O)[C@H]1C(=O)N[C@H](C(=O)N[C@H](Cc2ccc(O)cc2)C(N)=O)CSSC[C@@H](NC(=O)[C@@H](N)Cc2ccc(Cl)cc2)C(=O)N(C)[C@@H](Cc2ccc(O)cc2)C(=O)N[C@H](Cc2ccc(C(N)=O)cc2)C(=O)N[C@@H](CCCCN)C(=O)N1C
B16: Compound 73: H-Cpa-[DCys-Tyr-DPhe(4-carbamoyl)-Lys-NMeThr-Cys]-DTyr-NH2 (peptide)
peptide: XXYXKXCX
HELM: PEPTIDE1{[N[C@@H](Cc1ccc(Cl)cc1)C(=O)[*:2]].[dC].Y.[NC(=O)c1ccc(C[C@@H](N[*:1])C(=O)[*:2])cc1].K.[meT].C.[dY].[am]}$PEPTIDE1,PEPTIDE1,2:R3-7:R3$$$V2.0
SMILES: C[C@@H](O)[C@H]1C(=O)N[C@H](C(=O)N[C@H](Cc2ccc(O)cc2)C(N)=O)CSSC[C@@H](NC(=O)[C@@H](N)Cc2ccc(Cl)cc2)C(=O)N[C@@H](Cc2ccc(O)cc2)C(=O)N[C@H](Cc2ccc(C(N)=O)cc2)C(=O)N[C@@H](CCCCN)C(=O)N1C

Molecular target: somatostatin receptor type 2 (SSTR2) (UniProt P30874 1-369)
Sequence (P30874 whole entry): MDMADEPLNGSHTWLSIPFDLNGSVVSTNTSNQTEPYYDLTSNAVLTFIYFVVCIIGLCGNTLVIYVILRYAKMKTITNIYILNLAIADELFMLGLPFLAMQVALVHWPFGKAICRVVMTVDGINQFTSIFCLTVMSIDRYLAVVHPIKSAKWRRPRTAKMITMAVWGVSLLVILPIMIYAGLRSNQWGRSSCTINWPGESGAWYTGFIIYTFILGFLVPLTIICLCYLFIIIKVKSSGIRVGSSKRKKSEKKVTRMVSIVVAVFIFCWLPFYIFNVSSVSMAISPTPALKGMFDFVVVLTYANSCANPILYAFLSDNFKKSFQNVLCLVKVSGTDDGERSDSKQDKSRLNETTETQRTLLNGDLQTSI
Experiment: cell-based or functional assay

Binder	IC50 (PathHunter β-Arrestin, antagonist mode) [nM]
B1	39.1
B2	> 1000
B3	13.3
H-[Phe(4-Cl)][dC]Y[dPhe(4-CONH2)]K(Me)T[Dap][dY]-NH2 (bridge 2-7 via thiocarbamate) [Compound 63: H-Cpa-cyclo[DCys-Tyr-DPhe(4-CONH2)-Lys(Me)-Thr-Dap]-DTyr-NH2]	> 1000
B4	> 1000
B5	5.77
B6	1.6
B7	400
H-[Phe(4-Cl)][dDap]Y[dPhe(4-CONH2)]KTC[dY]-NH2 (bridge 2-7 via thiocarbamate) [Compound 60: H-Cpa-cyclo[DDap-Tyr-DPhe(4-CONH2)-Lys-Thr-Cys]-DTyr-NH2]	> 1000
B8	28.7
B9	3.35
B10	6.79
{CH3O2C(CH2)2(CO)}-[Phe(4-Cl)][dC]Y[dPhe(4-CONH2)]K(Me)TC[dY]-NH2 (disulfide 2-7) [Compound 58: CH3O2C(CH2)2(CO)-Cpa-cyclo[D-Cys-Tyr-D-Phe(4-carbamoyl)-Lys(Nε-Me)-Thr-Cys]-D-Tyr-NH2]	2.36
B11	2.25
B12	159
H-[Phe(4-Cl)][Dap]Y[dPhe(4-CONH2)]KTC[dY]-NH2 (bridge 2-7 via thiocarbamate) [Compound 61: H-Cpa-cyclo[Dap-Tyr-DPhe(4-CONH2)-Lys-Thr-Cys]-DTyr-NH2]	> 1000
B13	> 1000
{2‑furoyl}-[Phe(4-Cl)][dC]Y[dPhe(4-CONH2)]K(Me)TC[dY]-NH2 (disulfide 2-7) [Compound 57: (Furan-2-carboxy)-Cpa-cyclo[D-Cys-Tyr-D-Phe(4-carbamoyl)-Lys(Nε-Me)-Thr-Cys]-D-Tyr-NH2]	3.65
B14	2.32
B15	> 1000
H-[Phe(4-Cl)][dC]Y[dPhe(4-CONH2)]KT[Dap][dY]-NH2 (bridge 2-7 via thiocarbamate) [Compound 62: H-Cpa-cyclo[DCys-Tyr-DPhe(4-CONH2)-Lys-Thr-Dap]-DTyr-NH2]	> 1000
B16	547
